Molecular target: EDB (+)-fibronectin in murine tumor sections (Mus musculus, UniProt P11276)
Assay: immunostaining of cells or tissue

EDB (+)-fibronectin in murine tumor sections, sequence (P11276 33-2477): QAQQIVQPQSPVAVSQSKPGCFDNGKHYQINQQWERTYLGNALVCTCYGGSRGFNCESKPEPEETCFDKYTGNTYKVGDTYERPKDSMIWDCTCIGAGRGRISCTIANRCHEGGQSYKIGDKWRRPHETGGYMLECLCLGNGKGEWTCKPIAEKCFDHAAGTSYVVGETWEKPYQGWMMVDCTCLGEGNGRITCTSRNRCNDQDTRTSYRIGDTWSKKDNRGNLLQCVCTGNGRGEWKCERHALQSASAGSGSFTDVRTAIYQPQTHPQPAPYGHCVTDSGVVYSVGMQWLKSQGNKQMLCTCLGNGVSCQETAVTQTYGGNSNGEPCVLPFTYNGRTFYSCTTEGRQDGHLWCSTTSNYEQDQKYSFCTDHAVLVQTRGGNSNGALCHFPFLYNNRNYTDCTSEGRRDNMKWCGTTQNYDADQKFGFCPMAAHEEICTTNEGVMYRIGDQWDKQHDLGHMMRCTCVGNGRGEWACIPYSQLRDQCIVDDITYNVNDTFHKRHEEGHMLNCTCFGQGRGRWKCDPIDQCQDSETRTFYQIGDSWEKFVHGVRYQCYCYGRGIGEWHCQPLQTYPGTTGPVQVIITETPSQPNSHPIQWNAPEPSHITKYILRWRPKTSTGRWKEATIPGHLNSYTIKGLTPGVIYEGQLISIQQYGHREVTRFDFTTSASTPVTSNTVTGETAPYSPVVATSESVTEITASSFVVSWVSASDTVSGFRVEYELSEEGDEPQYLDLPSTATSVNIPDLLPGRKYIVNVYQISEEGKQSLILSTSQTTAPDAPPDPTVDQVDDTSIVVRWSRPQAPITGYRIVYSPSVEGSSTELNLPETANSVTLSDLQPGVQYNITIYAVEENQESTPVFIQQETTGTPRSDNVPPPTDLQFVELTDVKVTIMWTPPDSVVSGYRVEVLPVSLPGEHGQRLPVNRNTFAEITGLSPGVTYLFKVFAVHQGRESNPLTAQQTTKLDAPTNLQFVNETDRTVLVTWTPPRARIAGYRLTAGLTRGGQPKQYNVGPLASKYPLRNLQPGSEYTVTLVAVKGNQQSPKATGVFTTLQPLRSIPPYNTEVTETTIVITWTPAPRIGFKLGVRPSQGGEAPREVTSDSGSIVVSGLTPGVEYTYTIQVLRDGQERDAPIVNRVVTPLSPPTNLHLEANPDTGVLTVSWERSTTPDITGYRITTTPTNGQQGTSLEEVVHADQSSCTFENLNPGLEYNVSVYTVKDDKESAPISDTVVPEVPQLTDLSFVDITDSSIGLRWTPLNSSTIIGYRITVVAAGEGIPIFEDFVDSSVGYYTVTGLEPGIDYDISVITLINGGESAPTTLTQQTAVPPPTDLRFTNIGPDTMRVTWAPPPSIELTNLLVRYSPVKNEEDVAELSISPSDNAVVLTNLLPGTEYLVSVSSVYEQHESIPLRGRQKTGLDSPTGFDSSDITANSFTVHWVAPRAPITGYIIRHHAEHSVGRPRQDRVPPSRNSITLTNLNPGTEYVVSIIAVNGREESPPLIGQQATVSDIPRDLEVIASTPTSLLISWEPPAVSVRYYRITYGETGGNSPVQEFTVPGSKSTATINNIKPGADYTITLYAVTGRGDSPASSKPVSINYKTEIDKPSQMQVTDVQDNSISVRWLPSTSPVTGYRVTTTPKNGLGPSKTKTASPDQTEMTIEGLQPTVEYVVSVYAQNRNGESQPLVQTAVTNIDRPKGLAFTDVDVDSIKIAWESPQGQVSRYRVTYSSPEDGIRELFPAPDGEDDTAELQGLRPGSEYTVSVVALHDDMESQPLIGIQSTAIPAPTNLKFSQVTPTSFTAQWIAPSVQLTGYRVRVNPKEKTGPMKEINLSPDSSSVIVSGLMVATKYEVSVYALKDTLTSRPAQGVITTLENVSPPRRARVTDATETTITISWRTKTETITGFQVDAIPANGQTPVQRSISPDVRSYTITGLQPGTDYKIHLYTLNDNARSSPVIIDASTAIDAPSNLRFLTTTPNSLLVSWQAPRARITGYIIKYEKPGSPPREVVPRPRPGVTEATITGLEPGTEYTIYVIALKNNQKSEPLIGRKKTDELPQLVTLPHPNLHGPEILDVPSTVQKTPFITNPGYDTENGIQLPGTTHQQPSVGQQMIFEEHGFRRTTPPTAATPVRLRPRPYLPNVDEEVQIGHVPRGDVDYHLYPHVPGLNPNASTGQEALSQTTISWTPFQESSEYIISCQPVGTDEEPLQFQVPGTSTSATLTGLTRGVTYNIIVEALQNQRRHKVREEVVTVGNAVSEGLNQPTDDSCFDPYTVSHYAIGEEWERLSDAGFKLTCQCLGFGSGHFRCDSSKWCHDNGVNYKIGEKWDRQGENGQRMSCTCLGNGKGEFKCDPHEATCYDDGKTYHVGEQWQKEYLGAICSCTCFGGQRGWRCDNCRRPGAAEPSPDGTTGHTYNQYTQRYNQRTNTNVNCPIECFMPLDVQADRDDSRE

B1: FITC-labeled L19 IgG1 (antibody, V domains shown)
VH: EVQLLESGGGLVQPGGSLRLSCAASGFTFSSFSMSWVRQAPGKGLEWVSSISGSSGTTYYADSVKGRFTISRDNSKNTLYLQMNSLRAEDTAVYYCAKPFPYFDYWGQGTLVTVSS
VL: EIVLTQSPGTLSLSPGERATLSCRASQSVSSSFLAWYQQKPGQAPRLLIYYASSRATGIPDRFSGSGSGTDFTLTISRLEPEDFAVYYCQQTGRIPPTFGQGTKVEIK
binding result: binds

Source: article doi:10.1101/684100 (bioRxiv, 2019)
